Measured values as given in patent publication US20220333113.
Residue numbers refer to the chain shown, from its start.

Tests used:
Experiment in all cases: filter
Details in all cases: J = PPdU at every J; SB18T0.01 + 1 mM DTT, 37 C
[1] = target: T1, RIG-I K858A (Homo sapiens) (UniProt O95786)
T1 sequence: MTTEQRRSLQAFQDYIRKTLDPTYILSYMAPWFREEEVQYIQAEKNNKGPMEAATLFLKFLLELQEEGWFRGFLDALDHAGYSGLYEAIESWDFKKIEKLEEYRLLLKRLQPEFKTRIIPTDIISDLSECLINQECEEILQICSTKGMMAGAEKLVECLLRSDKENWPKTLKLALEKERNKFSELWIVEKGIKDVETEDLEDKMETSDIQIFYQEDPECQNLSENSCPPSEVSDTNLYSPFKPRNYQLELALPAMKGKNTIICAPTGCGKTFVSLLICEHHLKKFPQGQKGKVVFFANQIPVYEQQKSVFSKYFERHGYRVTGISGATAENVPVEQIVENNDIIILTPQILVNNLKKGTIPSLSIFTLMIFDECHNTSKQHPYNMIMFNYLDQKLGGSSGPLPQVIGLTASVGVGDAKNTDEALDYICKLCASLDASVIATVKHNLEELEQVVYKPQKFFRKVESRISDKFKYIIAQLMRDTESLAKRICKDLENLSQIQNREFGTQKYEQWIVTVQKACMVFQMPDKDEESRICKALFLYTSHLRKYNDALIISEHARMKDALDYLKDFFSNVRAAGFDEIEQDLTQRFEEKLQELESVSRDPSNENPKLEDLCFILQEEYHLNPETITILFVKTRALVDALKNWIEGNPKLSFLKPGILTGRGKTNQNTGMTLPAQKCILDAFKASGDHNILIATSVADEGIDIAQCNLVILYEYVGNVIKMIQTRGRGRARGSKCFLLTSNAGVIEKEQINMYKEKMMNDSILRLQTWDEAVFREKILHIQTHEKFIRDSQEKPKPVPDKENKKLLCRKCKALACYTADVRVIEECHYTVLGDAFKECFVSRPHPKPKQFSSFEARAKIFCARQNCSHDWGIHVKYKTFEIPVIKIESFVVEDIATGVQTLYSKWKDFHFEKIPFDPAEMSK

[2] = target: T2, RIG-I K861A (Homo sapiens) (UniProt O95786)
T2 sequence: T1 sequence with A858K, K861A

[3] = target: T3, RIG-I N668A (Homo sapiens) (UniProt O95786)
T3 sequence: T1 sequence with N668A, A858K

Sequence: ATCTCTGTGTCATGTGTTTTAATGTCAGTTTAATGATGAGG [14832-55_8]
- Kd [1]: 2.9 nM
- Kd [2]: 0.89 nM
- Kd [3]: 0.11 nM
